B1: Humanized × [MAPT_H] mAb (Ta1505-VL46_G34T/VH11) IgG4 S228P/Kappa (CX) (antibody, V domains shown)
VH: EVQLVESGGGLVQPGGSLRLSCAASGFTFSSFALNWVRQAPGKGLEWVGHIRSKTNNYATFYAASVKDRFTVSRDDSQNTAYLQMNSLKTEDTATYYCVRRGPRDSWFGYWGQGTLVTVSS
VL: DIVMTQSPLSLPVTLGEPASISCRSSQSIVHSNTNTYLEWYLQKPGQSPQLLIYTVSNRFSGVPDRFSGSGSGTDFTLKISRVEAEDLGVYYCFQGSHLPLTFGGGTKVEIKR
B2: Humanized × [MAPT_H] mAb (Ta1505-VL46_N33Q/VH11) IgG4 S228P/Kappa (CX) (antibody, V domains shown)
VH: EVQLVESGGGLVQPGGSLRLSCAASGFTFSSFALNWVRQAPGKGLEWVGHIRSKTNNYATFYAASVKDRFTVSRDDSQNTAYLQMNSLKTEDTATYYCVRRGPRDSWFGYWGQGTLVTVSS
VL: DIVMTQSPLSLPVTLGEPASISCRSSQSIVHSQGNTYLEWYLQKPGQSPQLLIYTVSNRFSGVPDRFSGSGSGTDFTLKISRVEAEDLGVYYCFQGSHLPLTFGGGTKVEIKR
B3: Humanized × [MAPT_H] mAb (Ta1505-VL46_N33Q_G34A/VH11) IgG4 S228P/Kappa (CX) (antibody, V domains shown)
VH: EVQLVESGGGLVQPGGSLRLSCAASGFTFSSFALNWVRQAPGKGLEWVGHIRSKTNNYATFYAASVKDRFTVSRDDSQNTAYLQMNSLKTEDTATYYCVRRGPRDSWFGYWGQGTLVTVSS
VL: DIVMTQSPLSLPVTLGEPASISCRSSQSIVHSQANTYLEWYLQKPGQSPQLLIYTVSNRFSGVPDRFSGSGSGTDFTLKISRVEAEDLGVYYCFQGSHLPLTFGGGTKVEIKR
B4: Humanized × [MAPT_H] mAb (Ta1505-VL46_N33S/VH11) IgG4 S228P/Kappa (CX) (antibody, V domains shown)
VH: EVQLVESGGGLVQPGGSLRLSCAASGFTFSSFALNWVRQAPGKGLEWVGHIRSKTNNYATFYAASVKDRFTVSRDDSQNTAYLQMNSLKTEDTATYYCVRRGPRDSWFGYWGQGTLVTVSS
VL: DIVMTQSPLSLPVTLGEPASISCRSSQSIVHSSGNTYLEWYLQKPGQSPQLLIYTVSNRFSGVPDRFSGSGSGTDFTLKISRVEAEDLGVYYCFQGSHLPLTFGGGTKVEIKR
B5: Humanized × [MAPT_H] mAb (Ta1505-VL46_N33T/VH11) IgG4 S228P/Kappa (CX) (antibody, V domains shown)
VH: EVQLVESGGGLVQPGGSLRLSCAASGFTFSSFALNWVRQAPGKGLEWVGHIRSKTNNYATFYAASVKDRFTVSRDDSQNTAYLQMNSLKTEDTATYYCVRRGPRDSWFGYWGQGTLVTVSS
VL: DIVMTQSPLSLPVTLGEPASISCRSSQSIVHSTGNTYLEWYLQKPGQSPQLLIYTVSNRFSGVPDRFSGSGSGTDFTLKISRVEAEDLGVYYCFQGSHLPLTFGGGTKVEIKR
B6: Humanized × [MAPT_H] mAb (Ta1505-VL46 S28N/VH11) IgG4 S228P/Kappa (CX) (antibody, V domains shown)
VH: EVQLVESGGGLVQPGGSLRLSCAASGFTFSSFALNWVRQAPGKGLEWVGHIRSKTNNYATFYAASVKDRFTVSRDDSQNTAYLQMNSLKTEDTATYYCVRRGPRDSWFGYWGQGTLVTVSS
VL: DIVMTQSPLSLPVTLGEPASISCRSSQNIVHSNGNTYLEWYLQKPGQSPQLLIYTVSNRFSGVPDRFSGSGSGTDFTLKISRVEAEDLGVYYCFQGSHLPLTFGGGTKVEIKR

Molecular target: T1, phosphorylated peptide (PRHLSNVS(pS)TGSIDMVD) of Example 10 (human)
T1 sequence (peptide, phosphoserine (pS) at peptide position 9): PRHLSNVSSTGSIDMVD
Assay: ELISA, pS413 peptide coated at 1 ug/ml, antibody titrated, goat anti-human-HRP, ABTS, OD405 (Example 10)

Q: With B1 as the binder, how does the EC50 (read off the curve) read?
A: 0.01 µg/mL

Q: How did the EC50 (read off the curve) turn out when B2 was run?
A: 0.02 µg/mL

Q: With B3 as the binder, how does the EC50 (read off the curve) read?
A: 0.02 µg/mL

Q: B4 was tested. Which EC50 (read off the curve) did it give?
A: 0.02 µg/mL

Q: B5 was tested. Which EC50 (read off the curve) did it give?
A: 0.01 µg/mL

Q: B6 was tested. Which EC50 (read off the curve) did it give?
A: 0.006 µg/mL

Source: US20180346564A1
